Results as given in patent US20190360025A1.
pKd: −log10 of the molar value. Blank lines part the entries; values can stand above or below the substance they belong to.

What was measured:
[1] = target: tumor necrosis factor alpha (TNF-α), R&D Systems 210-TA-005 (UniProt P01375); assay: c-PLA, buffer; TNF-α 1.00E-09 M
[2] = target: tumor necrosis factor alpha (TNF-α), R&D Systems 210-TA-005 (UniProt P01375); assay: t-PLA 10X probes, buffer; TNF-α 5.00E-07 M
[3] = target: tumor necrosis factor alpha (TNF-α), R&D Systems 210-TA-005 (UniProt P01375); assay: c-PLA 10X probes, buffer; TNF-α 1.00E-08 M
[4] = target: tumor necrosis factor alpha (TNF-α), R&D Systems 210-TA-005 (UniProt P01375); assay: t-PLA 1X probes, buffer; TNF-α 1.00E-08 M
[5] = target: tumor necrosis factor alpha (TNF-α), R&D Systems 210-TA-005 (UniProt P01375); assay: c-PLA, buffer; TNF-α 1.00E-12 M
[6] = target: tumor necrosis factor alpha (TNF-α), R&D Systems 210-TA-005 (UniProt P01375); assay: c-PLA 10X probes, human plasma; TNF-α 1.00E-11 M
[7] = target: tumor necrosis factor alpha (TNF-α), R&D Systems 210-TA-005 (UniProt P01375); assay: c-PLA 1X probes, human plasma; TNF-α 1.00E-08 M
[8] = target: tumor necrosis factor alpha (TNF-α), R&D Systems 210-TA-005 (UniProt P01375); assay: c-PLA 10X probes, human plasma; TNF-α 1.00E-08 M
[9] = target: tumor necrosis factor alpha (TNF-α), R&D Systems 210-TA-005 (UniProt P01375); assay: c-PLA 10X probes, buffer; TNF-α 5.00E-07 M
[10] = target: tumor necrosis factor alpha (TNF-α), R&D Systems 210-TA-005 (UniProt P01375); assay: t-PLA 10X probes, buffer; TNF-α 1.00E-10 M
[11] = target: tumor necrosis factor alpha (TNF-α), R&D Systems 210-TA-005 (UniProt P01375); assay: c-PLA 1X probes, human plasma; TNF-α 1.00E-13 M
[12] = target: tumor necrosis factor alpha (TNF-α), R&D Systems 210-TA-005 (UniProt P01375); assay: t-PLA 10X probes, buffer; TNF-α 1.00E-09 M
[13] = target: tumor necrosis factor alpha (TNF-α), R&D Systems 210-TA-005 (UniProt P01375); assay: t-PLA, buffer; TNF-α 1.00E-08 M
[14] = target: tumor necrosis factor alpha (TNF-α), R&D Systems 210-TA-005 (UniProt P01375); assay: t-PLA 10X probes, human plasma; TNF-α 1.00E-08 M
[15] = target: tumor necrosis factor alpha (TNF-α), R&D Systems 210-TA-005 (UniProt P01375); assay: t-PLA 1X probes, human plasma; TNF-α 1.00E-11 M
[16] = target: vascular endothelial growth factor (VEGF), R&D Systems 293-VE-010 (human) (UniProt P15692); assay: t-PLA with preamplification; VEGF 1.00E-11 M
Chain of UniProt P15692 (P15692 other isoform, or with tags, fused parts or gaps limits assumed): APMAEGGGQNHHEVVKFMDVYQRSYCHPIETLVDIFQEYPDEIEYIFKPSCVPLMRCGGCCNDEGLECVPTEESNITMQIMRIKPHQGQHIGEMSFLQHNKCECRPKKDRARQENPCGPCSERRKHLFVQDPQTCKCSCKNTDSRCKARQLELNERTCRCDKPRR

[17] = target: vascular endothelial growth factor (VEGF), R&D Systems 293-VE-010 (human) (UniProt P15692); assay: t-PLA with preamplification; VEGF 1.00E-09 M
[18] = target: vascular endothelial growth factor (VEGF), R&D Systems 293-VE-010 (human) (UniProt P15692); assay: t-PLA, human plasma; VEGF 1.00E-10 M
[19] = target: vascular endothelial growth factor (VEGF), R&D Systems 293-VE-010 (human) (UniProt P15692); assay: SPR, isoaffinity graph
[20] = target: vascular endothelial growth factor (VEGF), R&D Systems 293-VE-010 (human) (UniProt P15692); assay: t-PLA, chicken plasma; VEGF 1.00E-12 M
[21] = target: vascular endothelial growth factor (VEGF), R&D Systems 293-VE-010 (human) (UniProt P15692); assay: t-PLA, human plasma; VEGF 1.00E-12 M
[22] = target: vascular endothelial growth factor (VEGF), R&D Systems 293-VE-010 (human) (UniProt P15692); assay: c-PLA, buffer; VEGF 1.00E-14 M
[23] = target: vascular endothelial growth factor (VEGF), R&D Systems 293-VE-010 (human) (UniProt P15692); assay: t-PLA, human plasma; VEGF 1.00E-09 M
[24] = target: vascular endothelial growth factor (VEGF), R&D Systems 293-VE-010 (human) (UniProt P15692); assay: c-PLA, buffer; VEGF 1.00E-08 M
[25] = target: vascular endothelial growth factor (VEGF), R&D Systems 293-VE-010 (human) (UniProt P15692); assay: t-PLA with preamplification; VEGF 1.00E-08 M
[26] = target: vascular endothelial growth factor (VEGF), R&D Systems 293-VE-010 (human) (UniProt P15692); assay: c-PLA, chicken plasma; VEGF 1.00E-12 M
[27] = target: vascular endothelial growth factor (VEGF), R&D Systems 293-VE-010 (human) (UniProt P15692); assay: t-PLA, buffer; VEGF 1.00E-08 M
[28] = target: vascular endothelial growth factor (VEGF), R&D Systems 293-VE-010 (human) (UniProt P15692); assay: t-PLA, buffer; VEGF 1.00E-14 M

Chain of UniProt P01375 (P01375 77-233 limits assumed): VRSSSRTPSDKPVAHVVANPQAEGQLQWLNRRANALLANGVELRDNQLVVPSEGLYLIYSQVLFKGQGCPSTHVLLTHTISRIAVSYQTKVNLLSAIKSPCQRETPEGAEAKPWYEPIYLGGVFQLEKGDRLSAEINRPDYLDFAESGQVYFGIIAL

Substance: affinity-purified polyclonal anti-TNF-α antibody (R&D Systems AF-210-NA)
Counts [1]: 3700
SBR [1]: 328
Counts [2]: 2.24e+09
SBR [2]: 392
Counts [3]: 359000
SBR [3]: 1960
Counts [4]: 5.4e+07
SBR [4]: 65
Counts [5]: 4.62
Counts [6]: 2970
SBR [6]: 1.4
Counts [7]: 4770
SBR [7]: 63
Counts [8]: 158000
SBR [8]: 73
Counts [9]: 650000
SBR [9]: 3550
Counts [10]: 2.75e+07
SBR [10]: 4.8
Counts [11]: 83.7
SBR [11]: 1.1
Counts [12]: 3.2e+08
SBR [12]: 56
Counts [13]: 5.4e+07
SBR [13]: 317
Counts [14]: 3.81e+08
SBR [14]: 33
Counts [15]: 745000
SBR [15]: 3.1

Counts [16]: 1.26e+07
SBR [16]: 71
Counts [17]: 1.19e+09
SBR [17]: 6740
Counts [18]: 4.9e+07
SBR [18]: 30
pKd [19]: > 11.30
Counts [20]: 787000
SBR [20]: 12
Counts [21]: 2.06e+06
SBR [21]: 1.3
Counts [22]: 203
SBR [22]: 6.8
Counts [23]: 1.4e+08
SBR [23]: 86
Counts [24]: 483000
SBR [24]: 16300
Counts [25]: 1e+09
SBR [25]: 5680
Counts [26]: 198
SBR [26]: 22
Counts [27]: 2.5e+09
SBR [27]: 7230
Counts [28]: 595000
SBR [28]: 1.7
Substance: affinity-purified polyclonal anti-VEGF antibody (R&D Systems AF-293-NA)
